Results published in the DeepSol protein solubility set.

assay: soluble on expression in E. coli; label from the status in PepcDB or PDB records

Soluble on expression in E. coli, not soluble:
MGSDKIHHHHHHMASIQNLYETVVGVLGDQASKVISALGEITVECLPEHYISVMTALRDHEELHFELLVDLCGVDYSTYKNEVWQGKRFAVVSQLLSVKNNQRIRVRVWVSDDDFPVVESVVDIYNSADWYEREAFDMYGIMFNNHPDLRRILTDYGFVGHPFRKDFPISGYVEMRYDEEQKRVIYQPVTIEPREITPRIVREENYGGQ
MGSDKIHHHHHHMASMFNRVPPLHLLVAFEAAARLGSFARAAEELSVTPSAVSHRIKNLEELWGEDLFVRSNAALRLTAAGTRYLRNVQDALKSLNELARPEYNKMRTRLRVAIPPTFGRQHLVPRLPEFGALYPHIDIELHLAIPFLDVKAEDTDVEIRYGTGRYPDLKTTKLLVEPVFPACGREYYERVNGRAITKPEHLHGLVLLRSPLEPWKPWFETAGLDWPEPQTGPQLNDIGLMLEAVASNQGVALVRQRMARHWLSLGQMVRLLDIESVSPHGYYIVEREQAPLKPEARYFVDWLLSLDW
MGSDKIHHHHHHMATRHDRDGGQTTANLTIATGLDAFTRKEWATLAGTTRSDSDYNPFISHEFLAALEESGCAARRTGWLPQHLRLEDANGSLLGVVPCYLKSHSKGEYVFDYGWADAFERAGGQYYPKLQVSVPFTPVTGPRLLASKDADPDAVRQALAEGLKTLTDRLGVSSLHVTFAPRSETEVLSHAGFLTRTDQQFHFFNEGYGSYEDFLEALASRKRKALKKERRTAVEAGMEIEWLTGRDITEAAWDDFFAFYMDTASRKWGRPYLNRLFFSLIGERMADDILLVMAKRGSRYIAGAINFIGSDALYGRNWGAIEHHPFLHFEVCYHQAIEFAIAKGLKRVEAGAQGEHKLARGYLPVTTYSAHYIAHPGLRRAVADYLSRERREVEAIGDFLTEHSPYKKG
MGSDKIHHHHHHMATVAFHTLGCKVNHYETEAIWQLFKEAGYERRDFEQTADVYVINTCTVTNTGDKKSRQVIRRAIRQNPDGVICVTGCYAQTSPAEIMAIPGVDIVVGTQDREKMLGYIDQYREERQPINGVSNIMKARVYEELDVPAFTDRTRASLKIQEGCNNFCTFCIIPWARGLLRSRDPEEVIKQAQQLVDAGYKEIVLTGIHTGGYGEDMKDYNFAKLLSELDTRVEGVKRIRISSIEASQITDEVIEVLDRSDKIVNHLHIPIQSGSNTVLKRMRRKYTMEFFADRLNKLKKALPGLAVTSDVIVGFPGETEEEFMETYNFIKEHKFSELHVFPYSKRTGTPAARMEDQVDENVKNERVHRLIALSDQLAKEYASQYENEVLEIIPEEAFKETEEENMFVGYTDNYMKVVFKGTEDMIGKIVKVKILKAGYPYNEGQFVRVVEDEITEHMRLSS
MGSDKIHHHHHHMAVINPFVVGGYVSPRYFCDRVAETENLIRNLINGRNVALVSTRRMGKTGLIRHCFYQPLIKEGYYTFFIDIYATSSLKEFVFALGKGIFEKLKPQGNKFIDRFFSIITSLRIGFKLDSITGEPILELGLGDIHAPETTLEEIFIYLEQADKPCIVAIDEFQQISSYPEKNLEAILRTKVQHCSNSNFVFAGSQRHIMMNIFNSPSRPFYQSVSMMHLGAIPLEVYKPFVKGLFEENGKKVTDQLVENVYTLFDGHTWYVQLILNELFILTDKKGICDVPMINLALNNIIATQDFTFQEIFSRLPEKQKEIMIAIAKEQKAKGVTSAAFIKKYRLTSASSVQSGLKGLLEKDMLTQESGGYQVYDRLFNIWLRRNY
MGSDKIHHHHHHMAVSIEGSPPCSYFMCLQLYSQYIRYNHFMRLNDEQQMNEKHSDHADKTKMPSSETLKQVCQPEERVLGRADDGSVMEFMLQTEHGNTYLCRFPPGFISHAAIQLCTEEIWYFIQGEGVFWIKHEGIERQVPFNAGTALHAPCGGAMQFRNNGHLEAVAHVVTMPPWPGSDGAKLTKGPWESV
MGSDKIHHHHHHMAVSSNGGAIKAVIYDCDGVMFDSFEANLAFYQRIMEMMGRPRLSRDNEEQMRILHTYANREVLAHFFPSPGDWEEAVRCAGAIDYRELVPLMIMEEGFREALDTLKGRVGLGVCTNRSTSMDMVLRLFSLDSYFSIVMTASRVTNPKPHPEPLLKVLEHFGIGPREALFVGDSEVDRLSAEAAGVPFVAYKAPLPAAYRMEHHREIIDLLG
MGSDKIHHHHHHMAVTLYSSIATPHNKNTHHYFTRRTFLPDQQNSLWKIEAGFVRTFTYLENGTTVALGLWGPGDILGRALSKLEPYQMECLTKVEATIVPIEEWKNPTDTLLAHIQQAEELMVIRSYKKVDTMLIKLLAWLSKKFGSEVDKGRLIDMRLTHEDLAEMLGSTRVTITRILGQFEEEGLINRLSLHRIVLKEEDIWYYEI
